According to IntAct's records for PubMed 7877691:

B1: Retinoblastoma-associated protein (Homo sapiens), P06400 (parent)
chain: MPPKTPRKTAATAAAAAAEPPAPPPPPPPEEDPEQDSGPEDLPLVRLEFEETEEPDFTALCQKLKIPDHVRERAWLTWEKVSSVDGVLGGYIQKKKELWGICIFIAAVDLDEMSFTFTELQKNIEISVHKFFNLLKEIDTSTKVDNAMSRLLKKYDVLFALFSKLERTCELIYLTQPSSSISTEINSALVLKVSWITFLLAKGEVLQMEDDLVISFQLMLCVLDYFIKLSPPMLLKEPYKTAVIPINGSPRTPRRGQNRSARIAKQLENDTRIIEVLCKEHECNIDEVKNVYFKNFIPFMNSLGLVTSNGLPEVENLSKRYEEIYLKNKDLDARLFLDHDKTLQTDSIDSFETQRTPRKSNLDEEVNVIPPHTPVRTVMNTIQQLMMILNSASDQPSENLISYFNNCTVNPKESILKRVKDIGYIFKEKFAKAVGQGCVEIGSQRYKLGVRLYYRVMESMLKSEEERLSIQNFSKLLNDNIFHMSLLACALEVVMATYSRSTSQNLDSGTDLSFPWILNVLNLKAFDFYKVIESFIKAEGNLTREMIKHLERCEHRIMESLAWLSDSPLFDLIKQSKDREGPTDHLESACPLNLPLQNNHTAADMYLSPVRSPKKKGSTTRVNSTANAETQATSAFQTQKPLKSTSLSLFYKKVYRLAYLRLNTLCERLLSEHPELEHIIWTLFQHTLQNEYELMRDRHLDQIMMCSMYGICKVKNIDLKFKIIVTAYKDLPHAVQETFKRVLIKEEEYDSIIVFYNSVFMQRLKTNILQYASTRPPTLSPIPHIPRSPYKFPSSPLRIPGGNIYISPLKSPYKISEGLPTPTKMTPRSRILVSIGESFGTSEKFQKINQMVCNSDRVLKRSAEGSNPPKPLKKLRFDIEGSDEADGSKHLPGESKFQQKLAEMTSTRTRMQKQKMNDSMDTSNKEEK
partner: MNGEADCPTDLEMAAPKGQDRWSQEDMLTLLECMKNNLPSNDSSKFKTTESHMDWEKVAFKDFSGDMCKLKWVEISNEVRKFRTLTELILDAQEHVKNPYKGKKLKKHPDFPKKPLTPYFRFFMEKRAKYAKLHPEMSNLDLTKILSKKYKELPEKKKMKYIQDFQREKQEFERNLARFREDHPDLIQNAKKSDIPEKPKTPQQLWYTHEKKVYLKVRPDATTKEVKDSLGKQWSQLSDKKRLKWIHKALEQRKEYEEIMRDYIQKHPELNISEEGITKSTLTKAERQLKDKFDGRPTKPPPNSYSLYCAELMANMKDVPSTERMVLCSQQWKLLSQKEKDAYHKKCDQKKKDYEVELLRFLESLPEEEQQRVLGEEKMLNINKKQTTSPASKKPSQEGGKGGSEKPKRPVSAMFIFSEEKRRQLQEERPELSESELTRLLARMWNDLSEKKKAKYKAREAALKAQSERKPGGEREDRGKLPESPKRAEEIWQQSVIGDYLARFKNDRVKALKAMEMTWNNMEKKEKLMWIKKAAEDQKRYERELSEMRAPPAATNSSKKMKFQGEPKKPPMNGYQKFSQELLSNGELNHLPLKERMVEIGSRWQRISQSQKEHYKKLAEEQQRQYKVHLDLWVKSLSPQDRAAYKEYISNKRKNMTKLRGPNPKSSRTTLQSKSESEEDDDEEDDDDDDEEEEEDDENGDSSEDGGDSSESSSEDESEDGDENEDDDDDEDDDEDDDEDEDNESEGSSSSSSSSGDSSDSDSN

Variants of: B1
Conditions: with ubf1_rat Ubtf

Row | effect of a mutation on the interaction | Variant
1 | disrupting interaction | C706F
